Assay results taken from publication PMC9834221, “TLR3 forms a laterally aligned multimeric complex along double-stranded RNA for efficient signal transduction”.

B1: mouse Toll-like receptor 3 (TLR3) extracellular domain (ECD), wild type [mouse] / itself (parent)
chain: TNQCTVRYNVADCSHLKLTHIPDDLPSNITVLNLTHNQLRRLPPTNFTRYSQLAILDAGFNSISKLEPELCQILPLLKVLNLQHNELSQISDQTFVFCTNLTELDLMSNSIHKIKSNPFKNQKNLIKLDLSHNGLSSTKLGTGVQLENLQELLLAKNKILALRSEELEFLGNSSLRKLDLSSNPLKEFSPGCFQTIGKLFALLLNNAQLNPHLTEKLCWELSNTSIQNLSLANNQLLATSESTFSGLKWTNLTQLDLSYNNLHDVGNGSFSYLPSLRYLSLEYNNIQRLSPRSFYGLSNLRYLSLKRAFTKQSVSLASHPNIDDFSFQWLKYLEYLNMDDNNIPSTKSNTFTGLVSLKYLSLSKTFTSLQTLTNETFVSLAHSPLLTLNLTKNHISKIANGTFSWLGQLRILDLGLNEIEQKLSGQEWRGLRNIFEIYLSYNKYLQLSTSSFALVPSLQRLMLRRVALKNVDISPSPFRPLRNLTILDLSNNNIANINEDLLEGLENLEILDFQHNNLARLWKRANPGGPVNFLKGLSHLHILNLESNGLDEIPVGVFKNLFELKSINLGLNNLNKLEPFIFDDQTSLRSLNLQKNLITSVEKDVFGPPFQNLNSLDMRFNPFDCTCESISWFVNWINQTHTNISELSTHYLCNTPHHYYGFPLKLFDTSSCKDSAPFEL

Variants of: B1
Assay: cryo-EM 2D classification (fraction of tetrameric TLR3 particles on 90 bp dsRNA)
Conditions: with itself; TLR3 0.2 mg/mL (~2.4 µM) with 3.6 molar amount of 90 bp dsRNA (0.5 mg/mL, ~8.6 µM); 25 mM MES-NaOH pH 5.3 and 0.2 M NaCl; on ice for 2–3 h; parent: 11; read off a plot

Question: With chain 1 E499K D500K E503K as the variant, how does the screen value read?
Answer: 2.7%

Question: Which screen value does the source give for chain 1 N498K E499K E503K here?
Answer: 12%

Question: Which screen value does the source give for chain 1 S91E Q93E K113E K115E N117E K120E N121E here?
Answer: 0.75%

Question: With chain 1 Q93E V96E K113E K115E N117E K120E N121E as the variant, how does the screen value read?
Answer: 1.6%

Question: chain 1 E499K D500K was tested. Which screen value did it give?
Answer: 3.6%
